Assay results reported in patent US20260000597A1 (priority 2018, published 2026).

Target: AchR (Homo sapiens, UniProt P02708)
Assay: ELISA of screened peptide phages on AchR versus streptavidin (OD450)
Assay type: binding
Conditions: absorbance at 450 nm
Summary of the method: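 Reported as the ratio of AchR to streptavidin OD450, with TMB read-out after HRP anti-M13 detection. Wells coated with 5 μg/ml target overnight at 4 °C and BSA-blocked, then incubated 1 h at 30 °C with helper-rescued phage from individual plaques.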

[1] = ELISA of selected 11-mer (L2) peptide phages on AchR, Spep-2 positive control
[2] = phage ELISA, 5 μg/ml AchR, 4th and 5th round biopanning phages
[3] = ELISA of selected 14-mer (L3) peptide phages on AchR, Spep-2 positive control

Sequence of AchR (P02708 21-457): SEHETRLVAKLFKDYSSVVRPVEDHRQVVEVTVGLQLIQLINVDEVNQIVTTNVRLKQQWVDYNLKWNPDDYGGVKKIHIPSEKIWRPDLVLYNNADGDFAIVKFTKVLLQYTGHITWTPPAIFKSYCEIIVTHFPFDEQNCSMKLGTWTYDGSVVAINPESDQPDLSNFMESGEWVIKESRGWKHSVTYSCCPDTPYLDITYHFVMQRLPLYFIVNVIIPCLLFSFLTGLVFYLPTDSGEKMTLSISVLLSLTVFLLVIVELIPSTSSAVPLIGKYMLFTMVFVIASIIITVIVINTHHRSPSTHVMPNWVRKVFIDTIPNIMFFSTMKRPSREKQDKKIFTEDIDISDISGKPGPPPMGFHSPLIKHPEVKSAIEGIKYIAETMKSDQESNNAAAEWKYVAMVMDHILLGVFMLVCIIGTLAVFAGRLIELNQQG

Substance	OD [1]	OD [2]	OD [3]
L2-166 (QQLRLRKLCGK; AchR binding peptide) [Peptide L2-166]	0.579		
KPRKIQGR [Peptide L1-137]		0.458	
L3-184 (DMDKVKKWVWRSFP; AchR binding peptide) [Peptide L3-184]			0.766
KLKKFPVR [Peptide L1-4]		0.696	
L2-116 (SHSRQRKTPLR; AchR binding peptide) [Peptide L2-116]	0.699		
L3-154 (ENIKSRKYFVKLTW; AchR binding peptide) [Peptide L3-154]			0.766
KGKRDSNK [Peptide L1-51]		0.66	
RYKKQQYK [Peptide L1-167]		0.581	
RWKRSEQR [Peptide L1-32]		0.607	
RQKKDFLK [Peptide L1-107]		0.534	
L3-130 (EHSKHRKDLFRMVG; AchR binding peptide) [Peptide L3-130]			0.531
L3-199 (PQTRYRKYFYRPQM; AchR binding peptide) [Peptide L3-199]			0.781
RCKRCDNK [Peptide L1-120]		0.388	
KFKKHGVK [Peptide L1-21]		0.65	
L3-137 (QVVRLRRGKNRGTV; AchR binding peptide) [Peptide L3-137]			0.565
KGKKLSQR [Peptide L1-75]		0.581	
L3-91 (CWCRQRKCFHKPWI; AchR binding peptide) [Peptide L3-91]			0.749
L2-132 (LFTRIKRLVCK; AchR binding peptide) [Peptide L2-132]	0.515		
RWRRSVIK [Peptide L1-106]		0.417	
KSRRAVFR [Peptide L1-151]		0.479	
L2-29 (AILKGKRIPNK; AchR binding peptide) [Peptide L2-29]	0.756		
RLRRWCVK [Peptide L1-30]		0.605	
KYKREEYR [Peptide L1-161]		0.474	
L3-3 (SGVRYRKWWIRSVV; AchR binding peptide) [Peptide L3-3]			0.88
L2-114 (QVTKSKRVAFK; AchR binding peptide) [Peptide L2-114]	0.643		

Substance	OD [1]	OD [2]	OD [3]
L2-45 (WIYRGRKDVAK; AchR binding peptide) [Peptide L2-45]	0.584		
RFKRMVWR [Peptide L1-99]		0.543	
L3-121 (CDDKPKKTVVKLTW; AchR binding peptide) [Peptide L3-121]			0.655
KDRKVNSR [Peptide L1-97]		0.546	
L3-153 (FHTKLRKPIPKIDM; AchR binding peptide) [Peptide L3-153]			0.768
L3-5 (NEDRGKRPHIRVLG; AchR binding peptide) [Peptide L3-5]			0.82
L3-140 (EHCKWKKMFDKEGE; AchR binding peptide) [Peptide L3-140]			0.607
RHKRWSGR [Peptide L1-153]		0.625	
L3-125 (MQEKCRRCVFKGNI; AchR binding peptide) [Peptide L3-125]			0.629
L3-115 (NDPRLRKHNHRCCT; AchR binding peptide) [Peptide L3-115]			0.685
RLKRGQFK [Peptide L1-85]		0.57	
L2-41 (AEVKDKKAYYK; AchR binding peptide) [Peptide L2-41]	0.568		
L3-57 (EEIKQKKLHLRVWF; AchR binding peptide) [Peptide L3-57]			0.674
L2-40 (PEVKVRRHSMR; AchR binding peptide) [Peptide L2-40]	0.685		
L2-31 (NNSRSKRFMNR; AchR binding peptide) [Peptide L2-31]	0.737		
L3-120 (FLYKAKKALMRDSL; AchR binding peptide) [Peptide L3-120]			0.887
L3-103 (NDWKLRKDFWRNHF; AchR binding peptide) [Peptide L3-103]			0.676
KWRREQFR [Peptide L1-76]		0.588	
RARKESHK [Peptide L1-166]		0.649	
L2-5 (TQQRLKRVMEK; AchR binding peptide) [Peptide L2-5]	0.752		
L3-6 (EFVKLRKARLRGPQ; AchR binding peptide) [Peptide L3-6]			0.77
L3-181 (GPCRPRRHSIRLLW; AchR binding peptide) [Peptide L3-181]			0.624
L3-83 (SYLKCKRSDYKEVP; AchR binding peptide) [Peptide L3-83]			0.768
L3-146 (AVWRNRKDNVKASE; AchR binding peptide) [Peptide L3-146]			0.512
KPKKGGWK [Peptide L1-148]		0.426	

Substance	OD [1]	OD [2]	OD [3]
L2-96 (ISDKAKRQHFK; AchR binding peptide) [Peptide L2-96]	0.708		
KDKKTPCK [Peptide L1-193]		0.588	
L2-64 (SPFRAKRQDVR; AchR binding peptide) [Peptide L2-64]	0.683		
L2-98 (LMLRGKRLTTK; AchR binding peptide) [Peptide L2-98]	0.626		
L2-81 (TMWRQRKMSCK; AchR binding peptide) [Peptide L2-81]	0.705		
KDRKGVYK [Peptide L1-111]		0.608	
L3-93 (EGGRIKRPNYRGDG; AchR binding peptide) [Peptide L3-93]			0.7
RYRRWFYR [Peptide L1-155]		0.618	
KARKNSIR [Peptide L1-170]		0.642	
L3-143 (QTMKFKRCCNKEMV; AchR binding peptide) [Peptide L3-143]			0.559
L2-73 (PPFKFRKPLGR; AchR binding peptide) [Peptide L2-73]	0.662		
KLKRRSRR [Peptide L1-16]		0.62	
L3-105 (YYEKIRRGEIKIAE; AchR binding peptide) [Peptide L3-105]			0.601
L3-43 (FTHKNRRDSLRVWM; AchR binding peptide) [Peptide L3-43]			0.93
L3-191 (GINRGRKVSPKDEQ; AchR binding peptide) [Peptide L3-191]			0.739
L2-57 (LEHKERKDDFR; AchR binding peptide) [Peptide L2-57]	0.795		
RGKRGCER [Peptide L1-54]		0.569	
L3-4 (MPQKLKKLDIRNHN; AchR binding peptide) [Peptide L3-4]			0.905
L2-151 (TQCKDRRVSDR; AchR binding peptide) [Peptide L2-151]	0.749		
KQKRQWAR [Peptide L1-191]		0.649	
L3-135 (NDHRMRRSVDRGET; AchR binding peptide) [Peptide L3-135]			0.69
L3-44 (PPFRLRKPLWRPQR; AchR binding peptide) [Peptide L3-44]			0.719
L2-140 (YPQKLRRTALK; AchR binding peptide) [Peptide L2-140]	0.445		
L2-136 (YTSKNKRGCPR; AchR binding peptide) [Peptide L2-136]	0.454		
KHKKLNQR [Peptide L1-7]		0.68	

Substance	OD [1]	OD [2]	OD [3]
L2-128 (SPWRIRRQNIR; AchR binding peptide) [Peptide L2-128]	0.516		
RAKKIMFR [Peptide L1-177]		0.484	
RHKRQQDK [Peptide L1-186]		0.474	
KRKKDWWR [Peptide L1-10]		0.621	
L3-133 (VDSREKKWRQKCQC; AchR binding peptide) [Peptide L3-133]			0.566
KMRRAQGR [Peptide L1-34]		0.634	
L2-161 (AWFRVKRSNCR; AchR binding peptide) [Peptide L2-161]	0.579		
L2-79 (EGAKYRRDGWR; AchR binding peptide) [Peptide L2-79]	0.689		
L3-185 (VLPKERRWLTRFLI; AchR binding peptide) [Peptide L3-185]			0.794
L2-130 (GYDRARKGTLR; AchR binding peptide) [Peptide L2-130]	0.64		
L3-96 (EWHKHRREMVRWGP; AchR binding peptide) [Peptide L3-96]			0.567
L2-189 (AHIKSRKVWSR; AchR binding peptide) [Peptide L2-189]	0.696		
KNRKNLYR [Peptide L1-36]		0.553	
L2-159 (CNQKTKKIAEK; AchR binding peptide) [Peptide L2-159]	0.696		
L3-95 (SISRLRKAHQKFIP; AchR binding peptide) [Peptide L3-95]			0.657
L2-84 (PWHKGKRDFDR; AchR binding peptide) [Peptide L2-84]	0.574		
L2-150 (EDVRVKRQTCR; AchR binding peptide) [Peptide L2-150]	0.579		
RVKRFVPK [Peptide L1-112]		0.431	
KWRRNGQR [Peptide L1-98]		0.54	
L2-38 (ESEKIKRLSTR; AchR binding peptide) [Peptide L2-38]	0.88		
KSKRPEGR [Peptide L1-122]		0.352	
L2-61 (PTIRVRKSDDR; AchR binding peptide) [Peptide L2-61]	0.688		
L2-109 (YPTKGKRCMIR; AchR binding peptide) [Peptide L2-109]	0.596		
L3-89 (EWCKNKRWHSREYP; AchR binding peptide) [Peptide L3-89]			0.624
KIKRNVFK [Peptide L1-160]		0.55	
